Source: article PMC7979930
Values belong to the substance of their own block, whether it stands above or below them.

How the values were obtained:
[1] = target: CBF3core, dephosphorylated (Cep3 dimer, Ctf13, Skp1) (budding yeast) (UniProt P40969+P35203+P52286); test: EMSA; conditions: 1 mM DTT, 60 min on ice, 530 nM nucleosome, 106-1166 nM CBF3/CBF3core, 4% PAGE 0.2x TBE 4 C, EtBr stain, Hill fit
[2] = target: CBF3, dephosphorylated (CBF3core + Ndc10 NTD) (budding yeast) (UniProt P40969+P35203+P52286+P32504); test: EMSA; conditions: Ndc10 dissociates, main text says CEN3 nucleosome, Methods CEN3-601, EMSA: 10 mM Tris pH 7.4, 75 mM NaCl, 1 mM DTT, 60 min on ice, 530 nM nucleosome, 106-1166 nM CBF3/CBF3core, 4% PAGE 0.2x TBE 4 C, EtBr stain, Hill fit
[3] = target: CEN3 CENP-A^Cse4_∆L1 nucleosome (budding yeast | yeast) (UniProt P36012); test: native gel or EMSA; CBF3/CBF3core with CEN3 nucleosomes, room temperature 60 min; native agarose gels in 0.2 x TBE, SYBR Green I stain, bands quantified
[4] = target: CEN3 CENP-A^Cse4_∆L1 nucleosome with H2B_5mut (budding yeast | yeast) (UniProt P36012); test: as above
[5] = target: CEN3 CENP-A^Cse4 nucleosome with H2B_5mut (budding yeast | yeast) (UniProt P36012); test: as above
[6] = target: CEN3 CENP-A^Cse4 nucleosome (budding yeast | yeast) (UniProt P36012); test: as above
[7] = Fig. 3c legend says CEN3, Supp. Fig. 4f says CEN3-601, EMSA: 10 mM Tris pH 7.4, 75 mM NaCl

Substance: ATCGAGAATCCCGGTGCCGAGGCCGCTCAATTGGTCGTAGACAGCTCTAGCACCGCTTAAACGCACGTACGCGCTGTCCCCCGCGTTTTAATATTAGTGTATTTGATTTCCGAAAGTTAAAAAAGAAATAGTAAGAAATCATCCGAT (double strand) [CEN3-601 Cse4 nucleosome]
Kd ([1]; NucCse4/H2B, Fig. 3c legend says CEN3, Supp. Fig. 4f and Methods say CEN3-601, EMSA: 10 mM Tris pH 7.4, 75 mM NaCl): 320 nM
Kd [2]: 550 nM

Substance: ATCGAGAATCCCGGTGCCGAGGCCGCTCAATTGGTCGTAGACAGCTCTAGCACCGCTTAAACGCACGTACGCGCTGTCCCCCGCGTTTTAATATTAGTGTATTTGATTTCCGAAAGTTAAAAAAGAAATAGTAAGAAATCATCCGAT (double strand) [CEN3-601 Cse4/H2B_5mut nucleosome]
Kd [1, 7]: 350 nM

Substance: ATCGAGAATCCCGGTGCCGAGGCCGCTCAATTGGTCGTAGACAGCTCTAGCACCGCTTAAACGCACGTACGCGCTGTCCCCCGCGTTTTAATATTAGTGTATTTGATTTCCGAAAGTTAAAAAAGAAATAGTAAGAAATCATCCGAT (double strand) [CEN3-601 Cse4_deltaL1 nucleosome]
Kd [1, 7]: 360 nM

Substance: ATCGAGAATCCCGGTGCCGAGGCCGCTCAATTGGTCGTAGACAGCTCTAGCACCGCTTAAACGCACGTACGCGCTGTCCCCCGCGTTTTAATATTAGTGTATTTGATTTCCGAAAGTTAAAAAAGAAATAGTAAGAAATCATCCGAT (double strand) [CEN3-601 Cse4_deltaL1/H2B_5mut nucleosome]
Kd [1, 7]: 680 nM

Kd [3]: 360 nM
Kd [4]: 680 nM
Kd [5]: 350 nM
Kd [6]: 320 nM
Substance: dephosphorylated CBF3core (from UniProt P40969 1-608; P52286 1-194; P35203 1-478) (complex)
